Assay results from publication PMC7857493.

What was measured:
[1] = biological target: T1, Human neutrophil-derived myeloperoxidase (nMPO) (human), P05164; assay: native MS; whole unfractionated intact nMPO infused by nano-ESI (gold-coated capillaries) into a modified Q-Exactive, positive ion polarity
[2] = biological target: T1, Human neutrophil-derived …; assay: mass photometry; single-molecule mass photometry of intact nMPO on coverslips with silicone gaskets; apparent; diprotomer (ααββ) to monoprotomers (αβ)

B1: Human neutrophil-derived myeloperoxidase (nMPO), P05164 279-745; P05164 279-745 (enzyme)
chain 1: not shown
chain 2: VNCETSCVQQPPCFPLKIPPNDPRIKNQADCIPFFRSCPACPGSNITIRNQINALTSFVDASMVYGSEEPLARNLRNMSNQLGLLAVNQRFQDNGRALLPFDNLHDDPCLLTNRSARIPCFLAGDTRSSEMPELTSMHTLLLREHNRLATELKSLNPRWDGERLYQEARKIVGAMVQIITYRDYLPLVLGPTAMRKYLPTYRSYNDSVDPRIANVFTNAFRYGHTLIQPFMFRLDNRYQPMEPNPRVPLSRVFFASWRVVLEGGIDPILRGLMATPAKLNRQNQIAVDEIRERLFEQVMRIGLDLPALNMQRSRDHGLPGYNAWRRFCGLPQPETVGQLGTVLRNLKLARKLMEQYGTPNNIDIWMGGVSEPLKRKGRVGPLLACIIGTQFRKLRDGDRFWWENEGVFSMQQRQALAQISLPRIICDNTGITTVSKNNIFMSNSYPRDFVNCSTLPALNLASWREAS
modifications: heme covalently links the α- and β-chains; Met251 and Met253 oxidation and Trp255 oxidation variants; polypeptide truncation variants | N-glycans at Asn323 and Asn483 (mainly paucimannosidic M2F-M3F), Asn355 and Asn391 (mainly oligomannosidic M5-M6), Asn729 (largely unoccupied or GlcNAc1-GlcNAc1F); Met and Trp mono-/di-oxidation, Tyr mono-chlorination; Cys319-Cys319 bridge between the two …
stoichiometry N [1]: 2 | Kd [2]: 50 pM | percent diprotomer [2]: 93% | percent monoprotomer [2]: 7% | stoichiometry N [2]: 2
